Laboratory results: publication PMC5290277, “Specialized interfaces of Smc5/6 control hinge stability and DNA association”

T1: Smc5 hinge (extended-hinge);Smc6 hinge (extended-hinge) (Schizosaccharomyces …, UniProt O13710;P53692 364-692;462-773, |)
T1 sequence 1: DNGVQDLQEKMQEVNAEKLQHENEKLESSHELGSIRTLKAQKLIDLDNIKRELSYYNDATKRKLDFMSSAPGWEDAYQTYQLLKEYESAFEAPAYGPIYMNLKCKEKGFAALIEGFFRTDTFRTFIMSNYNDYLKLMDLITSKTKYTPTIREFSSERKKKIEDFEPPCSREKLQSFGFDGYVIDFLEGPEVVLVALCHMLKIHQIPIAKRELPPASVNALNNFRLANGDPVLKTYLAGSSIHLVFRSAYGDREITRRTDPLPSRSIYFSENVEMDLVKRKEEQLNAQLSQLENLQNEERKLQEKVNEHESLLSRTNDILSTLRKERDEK
T1 sequence 2: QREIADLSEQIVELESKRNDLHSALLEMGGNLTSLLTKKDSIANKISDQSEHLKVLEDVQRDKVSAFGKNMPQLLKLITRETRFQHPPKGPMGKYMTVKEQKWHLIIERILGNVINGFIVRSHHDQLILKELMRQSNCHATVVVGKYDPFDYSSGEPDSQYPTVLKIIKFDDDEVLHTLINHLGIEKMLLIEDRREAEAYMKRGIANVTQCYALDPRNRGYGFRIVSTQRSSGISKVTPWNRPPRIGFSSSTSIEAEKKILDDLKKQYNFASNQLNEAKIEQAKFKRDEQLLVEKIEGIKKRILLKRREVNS

T2: Smc5 hinge (extended-hinge);Smc6 hinge F528A (Schizosaccharomyces …, UniProt O13710;P53692 364-692;462-773, |F528A)
T2 sequence 1: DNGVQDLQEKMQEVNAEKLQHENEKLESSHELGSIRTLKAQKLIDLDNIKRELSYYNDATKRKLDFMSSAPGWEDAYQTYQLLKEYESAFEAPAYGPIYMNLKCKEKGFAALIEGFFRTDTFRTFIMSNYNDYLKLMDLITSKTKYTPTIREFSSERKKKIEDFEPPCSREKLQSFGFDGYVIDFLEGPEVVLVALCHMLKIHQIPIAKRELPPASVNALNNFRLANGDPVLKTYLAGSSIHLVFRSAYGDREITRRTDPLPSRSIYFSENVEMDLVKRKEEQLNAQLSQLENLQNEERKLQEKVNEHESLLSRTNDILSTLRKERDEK
T2 sequence 2: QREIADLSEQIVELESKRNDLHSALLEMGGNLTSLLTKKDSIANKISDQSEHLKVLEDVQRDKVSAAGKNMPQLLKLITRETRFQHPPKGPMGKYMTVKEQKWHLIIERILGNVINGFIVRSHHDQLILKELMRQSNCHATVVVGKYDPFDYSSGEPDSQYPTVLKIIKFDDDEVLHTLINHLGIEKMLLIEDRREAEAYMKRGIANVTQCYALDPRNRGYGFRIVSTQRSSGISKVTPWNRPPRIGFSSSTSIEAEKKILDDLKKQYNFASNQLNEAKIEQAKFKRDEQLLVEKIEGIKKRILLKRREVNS

T3: Smc5 hinge Y612A;Smc6 hinge (extended-hinge) (Schizosaccharomyces …, UniProt O13710;P53692 364-692;462-773, Y612A|)
T3 sequence 1: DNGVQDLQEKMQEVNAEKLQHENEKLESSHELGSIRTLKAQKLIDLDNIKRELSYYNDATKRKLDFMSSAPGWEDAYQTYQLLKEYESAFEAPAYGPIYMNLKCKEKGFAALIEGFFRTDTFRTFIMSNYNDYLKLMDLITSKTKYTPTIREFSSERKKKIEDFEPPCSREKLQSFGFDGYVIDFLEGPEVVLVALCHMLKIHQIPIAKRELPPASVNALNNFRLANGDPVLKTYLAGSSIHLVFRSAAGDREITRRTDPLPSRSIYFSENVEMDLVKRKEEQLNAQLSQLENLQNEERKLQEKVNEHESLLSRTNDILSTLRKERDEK
T3 sequence 2: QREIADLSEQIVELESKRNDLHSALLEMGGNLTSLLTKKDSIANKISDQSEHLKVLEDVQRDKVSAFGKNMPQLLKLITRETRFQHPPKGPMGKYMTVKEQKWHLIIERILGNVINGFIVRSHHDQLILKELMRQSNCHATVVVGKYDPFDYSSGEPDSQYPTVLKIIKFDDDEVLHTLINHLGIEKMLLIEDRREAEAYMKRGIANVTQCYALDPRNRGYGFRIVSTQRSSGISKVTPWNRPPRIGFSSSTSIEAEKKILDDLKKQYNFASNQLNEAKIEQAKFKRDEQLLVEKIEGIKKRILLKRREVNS

T4: Smc5 hinge (extended-hinge);Smc6 hinge R706C (Schizosaccharomyces …, UniProt O13710;P53692 364-692;462-773, |R706C)
T4 sequence 1: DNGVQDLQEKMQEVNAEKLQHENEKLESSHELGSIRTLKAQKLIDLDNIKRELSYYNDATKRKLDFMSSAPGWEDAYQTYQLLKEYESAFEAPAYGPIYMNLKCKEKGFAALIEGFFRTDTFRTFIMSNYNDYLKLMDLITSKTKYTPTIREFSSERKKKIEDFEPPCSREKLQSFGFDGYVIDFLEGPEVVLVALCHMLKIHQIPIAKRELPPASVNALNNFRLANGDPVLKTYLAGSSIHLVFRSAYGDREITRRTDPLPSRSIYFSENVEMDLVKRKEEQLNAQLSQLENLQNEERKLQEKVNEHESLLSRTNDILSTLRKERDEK
T4 sequence 2: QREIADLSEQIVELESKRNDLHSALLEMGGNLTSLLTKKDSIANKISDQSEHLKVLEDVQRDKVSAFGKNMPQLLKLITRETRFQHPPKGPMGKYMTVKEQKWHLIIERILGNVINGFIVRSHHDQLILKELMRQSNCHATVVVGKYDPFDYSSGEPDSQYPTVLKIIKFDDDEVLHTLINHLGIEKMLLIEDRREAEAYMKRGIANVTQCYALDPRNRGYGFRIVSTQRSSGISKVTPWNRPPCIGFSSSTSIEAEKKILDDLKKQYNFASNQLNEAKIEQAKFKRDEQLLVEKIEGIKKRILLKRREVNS


Columns and labels:
[1] = target: T1, Smc5 hinge (extended-hinge);Smc6 hinge …; assay: switchSENSE; biphasic association and dissociation; 20 mM HEPES.NaOH pH 7.5, 100 mM NaCl, 1 mM EDTA, 0.5 mM TCEP, room temperature 10 min, 100 nM DNA (FP, EMSA); pull-down same buffer, protein incubation 4 C 30 min; switchSENSE buffer not given; conditions: protein: recombinant;recombinant, tags: N-terminal His6, HRV-3C cleaved;N-terminal StrepII, copies: 1;1, label: 3' Cy3, single strand, immobilized on gold
[2] = target: T2, Smc5 hinge (extended-hinge);Smc6 hinge …; assay: fluorescence polarization; 20 mM HEPES.NaOH pH 7.5, 100 mM NaCl, 1 mM EDTA, 0.5 mM TCEP, room temperature 10 min, 100 nM DNA (FP, EMSA); pull-down same buffer, protein incubation 4 C 30 min; switchSENSE buffer not given; conditions: protein: recombinant;recombinant, tags: N-terminal His6, HRV-3C cleaved;N-terminal StrepII, copies: 1;1, label: 5' fluorescein, single strand
[3] = target: T3, Smc5 hinge Y612A;Smc6 hinge …; assay: as above; conditions: protein: recombinant;recombinant, tags: N-terminal His6, HRV-3C cleaved;N-terminal StrepII, copies: 1;1, label: 5' fluorescein, single strand
[4] = target: T4, Smc5 hinge (extended-hinge);Smc6 hinge …; assay: as above; conditions: protein: recombinant;recombinant, tags: N-terminal His6, HRV-3C cleaved;N-terminal StrepII, copies: 1;1, label: 5' fluorescein, single strand
[5] = target: T1, Smc5 hinge (extended-hinge);Smc6 hinge …; assay: as above; conditions: protein: recombinant;recombinant, tags: N-terminal His6, HRV-3C cleaved;N-terminal StrepII, copies: 1;1, label: 5' fluorescein, single strand

Binder	binding result [1]	Kd [2] [nM]	Kd [3] [nM]	Kd [4] [nM]	Kd [5] [nM]
GTGTGAACCCTCCAACAAAGGTAGCATTTGCCAGCTCTCGTGATGCAG (ssDNA, 5' HS-(CH2)6 thiol linker) [switchSENSE 48mer]	binds				
GCTCGTCTGGCTCTG (ssDNA) [15mer]		~1700	~1300	~1600	~1200
